Laboratory results: paper PMC5582858, “The yeast kinesin-5 Cin8 interacts with the microtubule in a noncanonical manner” (The Journal of Biological Chemistry, 2017)
Where two headings read alike, the source gives them in different places. Values belong to the binder of their own block, whether it stands above or below them.

Assays:
[1] = substrate: Nc1ncnc2c1ncn2[C@@H]1O[C@H](COP(=O)(O)OP(=O)(O)OP(=O)(O)O)[C@@H](O)[C@H]1O; assay: NADH-coupled steady-state ATPase assay; assay type: biochemical, Saccharomyces cerevisiae; settings: low ionic strength (21 mM), 20 mM HEPES pH 7.2, 2 mM MgCl2, 7.5 mM KCl, 20% glycerol, 298 K, 25.0 °C
Text: NADH-coupled steady-state ATPase assay on Cin8-His (Cin8 motor domain)

[2] = target: Pre-formed microtubule·Eg5 complex (bovine | human) (UniProt Q6B856); assay: stopped-flow light scattering; 0.5–5 μM Cin8-His rapidly mixed with a pre-formed microtubule·Eg5 complex (0.5 μM Eg5, 0.5 μM microtubules), low ionic strength, 298 K; amplitudes fit to Equation 6, observed rates to Equation 8
[3] = target: Paclitaxel-stabilized microtubules (bovine brain αβ-tubulin) (bovine) (UniProt Q6B856); assay: co-sedimentation; 0.5 μM Cin8-His, 0–2 μM microtubules, 1 mM ATP plus ATP regeneration system, low ionic strength (21 mM); fraction bound by NADH-coupled assay; apparent constants
[4] = target: Pre-formed microtubule·Eg5 complex (bovine | human) (UniProt Q6B856); assay: stopped-flow light scattering; 0.5–5 μM Cin8-His rapidly mixed with a pre-formed microtubule·Eg5 complex (0.5 μM Eg5, 0.5 μM microtubules), low ionic strength, 298 K; amplitudes fit to Equation 6, observed rates to Equation 8; remark: listed apart in the source
[5] = target: Paclitaxel-stabilized microtubules (bovine brain αβ-tubulin) (bovine) (UniProt Q6B856)
[6] = target: Paclitaxel-stabilized microtubules (bovine brain αβ-tubulin) (bovine) (UniProt Q6B856); assay: co-sedimentation; Cin8-His with microtubules, no added nucleotide, high ionic strength (88 mM), 298 K; Cin8 left in the supernatant measured by the NADH coupled ATPase assay; apparent constants
[7] = target: Paclitaxel-stabilized microtubules (bovine brain αβ-tubulin) (bovine) (UniProt Q6B856); assay: co-sedimentation; 0.5 μM Cin8-His, 0–2 μM microtubules, 1 mM ATP plus ATP regeneration system, high ionic strength (88 mM); fraction bound by NADH-coupled assay; apparent constants
[8] = target: Paclitaxel-stabilized microtubules (bovine brain αβ-tubulin) (bovine) (UniProt Q6B856); assay: co-sedimentation; 0.5 μM Cin8-His, 0–2 μM microtubules, 1 mM ATP plus ATP regeneration system, low ionic strength (21 mM); fraction bound by NADH-coupled assay; apparent constants; remark: listed apart in the source
[9] = target: Paclitaxel-stabilized microtubules (bovine brain αβ-tubulin) (bovine) (UniProt Q6B856); assay: co-sedimentation; Cin8-His with microtubules, no added nucleotide, low ionic strength (21 mM), 298 K; Cin8 left in the supernatant measured by the NADH coupled ATPase assay; apparent constants
[10] = target: Paclitaxel-stabilized microtubules (bovine brain αβ-tubulin) (bovine) (UniProt Q6B856); assay: co-sedimentation; 0.5 μM Cin8-His, 0–2 μM microtubules, 1 mM ATP plus ATP regeneration system, high ionic strength (88 mM); fraction bound by NADH-coupled assay; apparent constants; remark: listed apart in the source
[11] = target: Paclitaxel-stabilized microtubules (bovine brain αβ-tubulin) (bovine) (UniProt Q6B856); assay: co-sedimentation; 2 μM kinesin, 0–4 μM paclitaxel-stabilised microtubules, no added nucleotide, high ionic strength (88 mM; ATPase buffer with 75 mM KCl), 298 K, 100,000 × g 30 min; supernatant and pellet by SDS-PAGE; apparent constants, fit to Equation 3
[12] = target: Paclitaxel-stabilized microtubules (bovine brain αβ-tubulin) (bovine) (UniProt Q6B856); assay: co-sedimentation; 2 μM kinesin, 0–4 μM paclitaxel-stabilised microtubules, no added nucleotide, low ionic strength (21 mM; ATPase buffer with 7.5 mM KCl), 298 K, 100,000 × g 30 min; supernatant and pellet by SDS-PAGE; apparent constants, fit to Equation 3
[13] = target: Paclitaxel-stabilized microtubules (bovine brain αβ-tubulin) (bovine) (UniProt Q6B856); assay: co-sedimentation; competition: 0–14 μM Cin8-trx added to 2 μM Eg5 and 2 μM microtubules, 60 min at 298 K before centrifugation, high ionic strength; fraction Eg5 bound fit to Equation 5 with Kd,Eg5 fixed; apparent
[14] = target: Paclitaxel-stabilized microtubules (bovine brain αβ-tubulin) (bovine) (UniProt Q6B856); assay: co-sedimentation; 2 μM kinesin, 0–4 μM paclitaxel-stabilised microtubules, no added nucleotide, low ionic strength (21 mM; ATPase buffer with 7.5 mM KCl), 298 K, 100,000 × g 30 min; supernatant and pellet by SDS-PAGE; apparent constants, fit to Equation 3; remark: listed apart in the source
[15] = target: Paclitaxel-stabilized microtubules (bovine brain αβ-tubulin) (bovine) (UniProt Q6B856); assay: co-sedimentation; 4 μM Cin8-trx, 1 μM microtubules, 20 μM paclitaxel; ATPase buffer, without glycerol, plus DTT, PIPES pH 6.9, sodium phosphate pH 7.2, 10 mM NaCl or 10 mM potassium acetate
[16] = target: Paclitaxel-stabilized microtubules (bovine brain αβ-tubulin) (bovine) (UniProt Q6B856); assay: co-sedimentation; 2 μM kinesin, 0–4 μM paclitaxel-stabilised microtubules, no added nucleotide, high ionic strength (88 mM; ATPase buffer with 75 mM KCl), 298 K, 100,000 × g 30 min; supernatant and pellet by SDS-PAGE; apparent constants, fit to Equation 3; remark: listed apart in the source
[17] = target: Paclitaxel-stabilized microtubules (bovine brain αβ-tubulin) (bovine) (UniProt Q6B856); assay: co-sedimentation; competition: 0–14 μM Cin8-trx added to 2 μM Eg5 and 2 μM microtubules, 60 min at 298 K before centrifugation, low ionic strength; fraction Eg5 bound fit to Equation 5 with Kd,Eg5 fixed; apparent
[18] = microtubule-stimulated (2 μM bovine brain microtubules, paclitaxel-stabilized)

kon [2]: 1.1e+06 M⁻¹ s⁻¹
Kd [3]: 110 nM
K0.5 (Cin8 concentration at half-maximal light-scattering amplitude) [4]: 0.27 µM
koff [4]: 3.1 s⁻¹
kon [4]: 1e+06 M⁻¹ s⁻¹
K0.5,MT of the microtubule-stimulated steady-state ATPase (NADH coupled assay), 21 mM ionic strength [5]: 0.08 µM
K0.5,MT of the microtubule-stimulated steady-state ATPase (NADH coupled assay), 88 mM ionic strength [5]: 1.8 µM
Kd [6]: 180 nM
stoichiometry N [6]: 3
Kd [7]: 960 nM
stoichiometry N [7]: 6.1
Kd [8]: 140 nM
stoichiometry N [8]: 3.7
Kd [9]: 260 nM
stoichiometry N [9]: 3.1
Kd [10]: 1600 nM
B2: Cin8-His (S. cerevisiae kinesin-5 Cin8 motor domain, residues 70–535, with N-terminal His6 and TEV cleavage tags) (domain or fragment)
chain: ISINTTGDTGITAQMNAKRYTVDKVFGPGASQDLIFDEVAGPLFQDFIKGYNCTVLVYGMTSTGKTYTMTGDEKLYNGELSDAAGIIPRVLLKLFDTLELQQNDYVVKCSFIELYNEELKDLLDSNSNGSSNTGFDGQFMKKLRIFDSSTANNTTSNSASSSRSNSRNSSPRSLNDLTPKAALLRKRLRTKSLPNTIKQQYQQQQAVNSRNNSSSNSGSTTNNASSNTNTNNGQRSSMAPNDQTNGIYIQNLQEFHITNAMEGLNLLQKGLKHRQVASTKMNDFSSRSHTIFTITLYKKHQDELFRISKMNLVDLAGSENINRSGALNQRAKEAGSINQSLLTLGRVINALVDKSGHIPFRESKLTRLLQDSLGGNTKTALIATISPAKVTSEETCSTLEYASKAKNIKNKPQLGSFIMKDILVKNITMELAKIKSDLLSTKSKEGIYMSQDHYKNLNSDLESYKN

Kd [11]: 130 nM
stoichiometry N [11]: 4
Kd [12]: 13 nM
Kd [13]: 590 nM
Kd [14]: 1 nM
stoichiometry N [14]: 5.1
stoichiometry N [15]: 4
stoichiometry N [16]: 3 to 5
Kd [17]: 2 nM
B3: Cin8-trx (Cin8 motor domain, residues 70–535, fused to N-terminal thioredoxin (TrxA), His6, TEV cleavage and Arg9 tags) (domain or fragment)
chain: B2 chain

Second part, the binder before the results:

B1: Cin8-His (Cin8 motor domain) (Saccharomyces cerevisiae S288C; DEL254-353/DEL32-69/INS253NNNNNSS) (protein)
chain: ISINTTGDTGITAQMNAKRYTVDKVFGPGASQDLIFDEVAGPLFQDFIKGYNCTVLVYGMTSTGKTYTMTGDEKLYNGELSDAAGIIPRVLLKLFDTLELQQNDYVVKCSFIELYNEELKDLLDSNSNGSSNTGFDGQFMKKLRIFDSSTANNTTSNSASSSRSNSRNSSPRSLNDLTPKAALLNNNNNSSSSRSHTIFTITLYKKHQDELFRISKMNLVDLAGSENINRSGALNQRAKEAGSINQSLLTLGRVINALVDKSGHIPFRESKLTRLLQDSLGGNTKTALIATISPAKVTSEETCSTLEYASKAKNIKNKPQLGSFIMKDILVKNITMELAKIKSDLLSTKSKEGIYMSQDHYKNLNSDLESYKN
notes: motor domain residues 70-535; N-terminal His6 and TEV site tags kept; expressed in E. coli B834(DE3); monomeric in solution
Km ([1]; microtubule-stimulated): 45 ± 4 µM
kcat ([1]; microtubule-stimulated): 0.36 ± 0.22 s^−1 site^−1

B4: Cin8-His (Cin8 motor domain) (Saccharomyces cerevisiae S288C) (protein)
chain: NEELNITVAVRCRGRNEREISMKSSVVVNVPDITGSKEISINTTGDTGITAQMNAKRYTVDKVFGPGASQDLIFDEVAGPLFQDFIKGYNCTVLVYGMTSTGKTYTMTGDEKLYNGELSDAAGIIPRVLLKLFDTLELQQNDYVVKCSFIELYNEELKDLLDSNSNGSSNTGFDGQFMKKLRIFDSSTANNTTSNSASSSRSNSRNSSPRSLNDLTPKAALLRKRLRTKSLPNTIKQQYQQQQAVNSRNNSSSNSGSTTNNASSNTNTNNGQRSSMAPNDQTNGIYIQNLQEFHITNAMEGLNLLQKGLKHRQVASTKMNDFSSRSHTIFTITLYKKHQDELFRISKMNLVDLAGSENINRSGALNQRAKEAGSINQSLLTLGRVINALVDKSGHIPFRESKLTRLLQDSLGGNTKTALIATISPAKVTSEETCSTLEYASKAKNIKNKPQLGSFIMKDILVKNIT
notes: as for B1
Km [1, 18]: 29 ± 16 µM
kcat [1, 18]: 0.38 ± 0.04 s^−1 site^−1
